Test [1] concerns the target IRF3, activated in vitro by virus-activated mitochondria (P5) and cytosolic extract (UniProt Q14653). In words: SEC.
The next test addresses IRF3 (UniProt Q14653). In words: Superdex-200 gel filtration after cell-free reaction. The note with it: reference: reaction without virus-activated mitochondria; sites S385,S386,S396.

Here are results for 2 substances from article PMC2779157.

Chain of IRF3 (Q14653 whole entry, change not shown): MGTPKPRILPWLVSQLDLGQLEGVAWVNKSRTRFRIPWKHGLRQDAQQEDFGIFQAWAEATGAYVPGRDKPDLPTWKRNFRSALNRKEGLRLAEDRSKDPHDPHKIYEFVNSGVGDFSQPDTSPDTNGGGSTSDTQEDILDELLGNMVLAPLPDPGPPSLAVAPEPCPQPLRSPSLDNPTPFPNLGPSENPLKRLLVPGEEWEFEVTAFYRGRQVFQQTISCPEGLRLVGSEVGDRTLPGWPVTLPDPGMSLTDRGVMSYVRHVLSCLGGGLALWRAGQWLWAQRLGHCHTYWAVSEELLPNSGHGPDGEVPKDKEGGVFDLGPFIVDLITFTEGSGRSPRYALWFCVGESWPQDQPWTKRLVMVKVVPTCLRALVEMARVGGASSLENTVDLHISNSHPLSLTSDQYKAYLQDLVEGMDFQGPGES

“IRF3, activated in vitro by virus-activated mitochondria (P5) and cytosolic extract (from UniProt Q14653 1-427) (natural protein)” yielded a stoichiometry N in test [1] of 2.
As to “IRF3 (from UniProt Q14653) reaction with virus-activated mitochondria (P5)”, in the test with IRF3, the “other: apparent molecular mass” value is on record as “gained; reference 150”.

What is called stoichiometry N is a count of units in the complex or per binding partner.
